Assay results reported in PMC2835542.

Target: human epidermal growth factor receptor (EGFR), stably over-expressed on rat 9L gliosarcoma cells (human) (UniProt P00533)
Test: X-gal staining of live cells incubated with β-gal-labelled ligand complex

- percent of cells labelled: > 75%
Substance: EGF ligand-complex with full-length β-gal reporter (EGF-B-SA-B-β-gal)
